The values that follow come from paper PMC5362033, “The Vitamin B12-Dependent Photoreceptor AerR Relieves Photosystem Gene Repression by Extending the Interaction of CrtJ with Photosystem Promoters” (mBio, 2017).

B2: CrtJ (natural protein, Rhodobacter capsulatus, UniProt P26167 1-469, looked up)
chain: MTSDGSFLMRREALQRVSPDLLADIVTSACDIALVVSPGRVVESVMVNPQFGSAERFAAWQGARLSQLFSPESAQKLENRLADGPEPGRSLQLELTHAADAFTLPVRYTITRSGEDGTLLLIGRDMQPLAEVQQQLVKAQLALERDYEAQREIETRYRVLLEAHPAPLLIVSMSTGRIADLNLAAAAMIGATRAELIDAPVGQELDGRRRGEFLENLAKIAGSDPLGAVELTIRRSRRKVTVTATLFRAAGDRLLLCRLGEAEARRTRVDDTVELSERLFLKGIDAMVFLDADGTIRAANDAFLYLTDAGSAALVQGRSFADFLSRGAVDLNVLLDNVKRIGHLRHYVTRLNTDFSGQVTVELSATLFHDRATPTIALVIRDSNLADATRIMPGMASNEGLRNVMQMVGYATLRDIVSETTEIIEKMCIETALELTGNNRVAAAELLSLSRQSLYVKLRKFGLLSKDAE
notes: CrtJ, aerobic repressor of photosystem genes, Rhodobacter capsulatus (strain SB1003 is the wild-type parent); calculated molecular mass of the dimer 101.0 kDa; also called CrtJ2; CrtJ dimer; source: E. coli BL21(DE3) bearing pSUMO-CrtJ, overexpressed as SUMO-tagged protein, purified according to previous studies

For data set [1], the system named is CrtJ;AerR (Rhodobacter capsulatus;Rhodobacter capsulatus). The experiment in a line: EMSA. The note with it: EMSA with 10 nM bchC DNA, oxidizing (O2) or reducing (10 mM DTT), Hill fit; buffer, salt, pH and temperature not in the material (reported previously, ref. 20). For orientation: In EMSA bound probe runs differently from free probe, usually more slowly.
Data set [2] has as its target B2. Briefly: SEC-MALS; size exclusion chromatography coupled with multiangle light scattering (Wyatt), analysed with ASTRA 6, BSA for calibration; CrtJ alone and CrtJ with added AerR. The note with it: both partners purified.
Data set [3] concerns the molecule itself. Described as above.

As to bchC promoter EMSA probe, 325 bp, the binding signal (fold higher affinity than CrtJ alone) in data set [1] was 6.

B1: AerR (natural protein)
chain: MNGVAELQTVLVNRMVELATGPELGAMDLLFDEFRAAHVPVEEMATHYIPEAARQIGAAWDSDRIGFAQVTIAISRLQELLHALQTLVTADSVGCANGATVLLIVPPGEQHTLGALIVAMELRRRGVSVRIVFAPGLSDLSRLMATTRFDAALITVGSMDRVEICAKLVKTLSSLTKGRMRVAIGGAIVSQRAEALARTGADLVTNDLSLVISEFSLV
In the case of B1, in data set [2], the “stoichiometry N” value was 0.5 AerR per CrtJ chain (1:2).

On to B2, for which the “stoichiometry N” value in data set [3] came out at 2.

What is called stoichiometry N is the number of molecules, sites or subunits per partner or assembly.
